According to patent publication US20090325867A1, “RECEPTOR-SPECIFIC TUMOUR NECROSIS FACTOR-RELATED APOPTOSIS-INDUCING LIGAND (TRAIL) VARIANTS” (MEDICAL RESEARCH COUNCIL, priority 2005, published 2009):
Entries after “also recorded” stand apart in the source; their conditions may differ. Each block holds one molecule with its values, some of them ahead of it.

Tests used:
Format in all cases: cell-based
[1] = target: T1, TRAIL-R1 (DR4) (Homo sapiens, UniProt O00220); experiment: TRAIL-R1 selective apoptotic signalling (Ramos versus Jurkat cells); conditions: from apoptosis in Ramos (TRAIL-R1) and Jurkat (TRAIL-R2) cells
T1 construct: Ramos and Jurkat cells, which signal predominantly through TRAIL-R1 and TRAIL-R2, respectively; endogenous in cells; host or cells: Ramos cells (Jurkat cells as TRAIL-R2 comparison)
Source text: Another test involves the assay of the effect in R1- (DR4-) only cells. This is the preferred test for DR4 selectivity as discussed herein. Preferably the ligand is applied to an R1-only signalling cell. Preferably the cell is a Ramos cell. Preferably the read-out is functional activity, preferably death-inducing activity (apoptosis). This is crucial to the test—mere binding is not as robust an indicator as functional induction of death. Thus, preferably a DR4 selective ligand according to the present invention induces death in a DR4 only signalling cell, such as a Ramos cell.
(§1) Ramos, an Epstein-Barr virus-negative Burkitt's lymphoma cell line, and Jurkat T cells (clone E6-1) were cultured as described (MacFarlane et al (2005 Cell Death and Differentiation vol 12 pages 773-782)). Blood samples were obtained from CLL patients, with patient consent and local ethical committee approval and CLL cells purified as described (MacFarlane et al (2002 Oncogene 21, 6809-6818). Cells were incubated for 16 h with depsipeptide (10 nM), provided by Dr. E. Sausville (NCI, USA). Cells were then cultured for a further 6 h with either HGSETR1 or HGS-ETR2, agonistic mAbs to TRAIL-R1 or -R2, respectively (Human Genome Sciences, Rockville, Md.), His-TRAIL-LE (a recombinant TRAIL with low endotoxin—Alexis Corporation, Nottingham, UK), His-TRAIL, a similar form of human recombinant TRAIL (MacFarlane et al (1997 J Biol Chem 272, 25417-25420)) but not further purified to reduce endotoxin levels or a mutant form of His-TRAIL as described (MacFarlane et al., 2005 ibid.). Cell lines were also pre-incubated for 30 min with a TRAIL-R1 blocking Ab and a TRAIL-R2 neutralizing Ab from Alexis and R&D systems, respectively, prior to exposure to TRAIL. Freshly isolated cells from patients with MCL were isolated, purified and incubated with different forms of TRAIL as described above for CLL cells. Samples were either analyzed immediately for apoptosis or stored at −80° C. for subsequent Western blotting. Other methods and reagents were as described (Inoue (2004 Cell Death Differ 11 Suppl 2, S193-206); MacFarlane et al., 2005 ibid).
(§2) Apoptosis was quantified by phosphatidylserine (PS) externalization in the presence of propidium iodide as described (MacFarlane et al., 2002 ibid.). Samples for Western blot analysis were prepared and caspase processing detected as described (Inoue et al., 2004 ibid.; MacFarlane et al., 2005 ibid.).
Referring to FIG. 4: Ramos cells (A) and Jurkat cells (B) were cultured with increasing concentrations of Arg191Leu or Asn199Val single mutants of His-TRAIL ([…]) or His-TRAIL (500 ng/ml), ETR1 or ETR2 (1000 ng/ml) for 4 h. Apoptosis was quantified by measuring the % PS+ cells and results shown in FIG. 4 are the Mean±SEM of three independent experiments. Thus the biological importance TRAIL residues R191 and N199 in TRAIL-R1 selectivity is shown.

[2] = system: Ramos cells; experiment: Apoptosis by phosphatidylserine (PS) externalization in Ramos cells; conditions: for % PS+ cells, Ramos: 4 h exposure, 500 ng ml^−, Mean ± SEM of at least three determinations; for ability to induce apoptosis in Ramos cells (in words): PS externalization, compared with wt TRAIL
Procedure: (§3) Cells were also exposed to HGS-ETR1 or HGSETR2 (1 μg ml^−1). C: Ramos or Jurkat cells were pre-incubated for 30 min either alone or with TRAIL-R1 blocking Ab or TRAIL-R2 neutralizing Ab (5 μg ml^−1). […] D: Ramos and Jurkat cells were exposed to wt TRAIL or TRAIL mutants as described above and processing of caspase-3 and -8 determined by Western blot analysis. The asterisk indicates a non-specific band. The lower panel of the blot for detection of the caspase-8 p18 subunit was exposed for twice as long as the upper panel. Apoptosis was assessed by phosphatidylserine externalization and results expressed as the Means±SEM of at least 3 separate determinations.
as §1, §2
Ramos and Jurkat T cells (clone E6-1) were cultured as described (MacFarlane et al, 2005 ibid.). The breast tumour cell line, MCF-7 (clone F43) was cultured as described previously (MacFarlane et al., 2000 J. Cell Biol. 148, 1239-1254). Cells were cultured for either 4 h (Ramos and Jurkat) or 6 h (MCF-7) with His-TRAIL (MacFarlane et al, 1997 J Biol Chem 272, 25417-25420), HGS-ETR1 or HGS-ETR2 (Human Genome Sciences), or a mutant form of His-TRAIL (MacFarlane et al, 2005 ibid.). Samples were analyzed for apoptosis, Western blotting, or TRAIL DISC activation as described (MacFarlane et al, 2005 ibid.; MacFarlane et al. 2002 Oncogene 21, 6809-6818). Mutants of His-TRAIL (residues 95-281) were generated using the Quik-Change site-directed mutagenesis kit (Stratagene, Calif.), confirmed by DNA sequencing, expressed in E. coli and purified as described (MacFarlane et al, 1997 ibid.). For siRNA targeting of TRAIL-R1/-R2, MCF-7 cells were seeded into six-well plates immediately prior to effectene-mediated RNAi transfection with either a negative control siRNA (30 nM, Ambion, #4611), or preannealed siRNA oligonucleotides for TRAIL-R1 or TRAIL-R2 (30 nM, Ambion), with the sequence and validity described (Ren et al, 2004 Mol. Biol. Cell vol 15 pp 5064-5074). After 40 h of transfection the cells were collected and total TRAIL-R1 or TRAIL-R2 levels assessed. […]

[3] = system: Jurkat cells; experiment: Apoptosis by phosphatidylserine (PS) externalization in Jurkat cells; conditions: for % PS+ cells, Jurkat: 4 h exposure, 500 ng ml^−, Mean ± SEM of at least three determinations; for ability to induce apoptosis in Jurkat cells (in words): PS externalization, compared with wt TRAIL
Procedure: as §3, with “determinations. […]” for “determinations.”
as §2
Ramos and Jurkat T cells (clone E6-1) were cultured as described (MacFarlane et al, 2005 ibid.). The breast tumour cell line, MCF-7 (clone F43) was cultured as described previously (MacFarlane et al., 2000 J. Cell Biol. 148, 1239-1254). Cells were cultured for either 4 h (Ramos and Jurkat) or 6 h (MCF-7) with His-TRAIL (MacFarlane et al, 1997 J Biol Chem 272, 25417-25420), HGS-ETR1 or HGS-ETR2 (Human Genome Sciences), or a mutant form of His-TRAIL (MacFarlane et al, 2005 ibid.). Samples were analyzed for apoptosis, Western blotting, or TRAIL DISC activation as described (MacFarlane et al, 2005 ibid.; MacFarlane et al. 2002 Oncogene 21, 6809-6818). Mutants of His-TRAIL (residues 95-281) were generated using the Quik-Change site-directed mutagenesis kit (Stratagene, Calif.), confirmed by DNA sequencing, expressed in E. coli and purified as described (MacFarlane et al, 1997 ibid.). For siRNA targeting of TRAIL-R1/-R2, MCF-7 cells were seeded into six-well plates immediately prior to effectene-mediated RNAi transfection with either a negative control siRNA (30 nM, Ambion, #4611), or preannealed siRNA oligonucleotides for TRAIL-R1 or TRAIL-R2 (30 nM, Ambion), with the sequence and validity described (Ren et al, 2004 Mol. Biol. Cell vol 15 pp 5064-5074). After 40 h of transfection the cells were collected and total TRAIL-R1 or TRAIL-R2 levels assessed. Where indicated, RNAi transfected MCF-7 cells were either left untreated or exposed to wt-TRAIL and apoptosis assessed by the extent of Bax activation, determined using the conformation specific Bax MAb, clone 3 (Dewson et al, 2003 Oncogene vol 22 pp 2643-54).

B1: TRAIL.R1-4: 6His TRAIL 95-281 with 199Val, 201Arg, 213Trp and 215Asp (protein)
chain: TSEETISTVQEKQQNISPLVRERGPQRVAAHITGTRGRSNTLSSPNSKNEKALGRKINSWESSRSGHSFLSNLHLRNGELVIHEKGFYYIYSQTYFRFQEEIKEVTRNDKQMVQYIYKWTDYPDPILLMKSARNSCWSKDAEYGLYSIYQGGIFELKENDRIFVSVTNEHLIDMDHEASFFGAFLVG
receptor selectivity of apoptotic activity (in words) [1]: good R1 selective activity; also recorded: a degree of selectivity for TRAIL-R1 | % PS+ cells, Ramos [2]: 43.5 ± 2.5% | ability to induce apoptosis in Ramos cells (in words) [2]: retained the activity of wt TRAIL | % PS+ cells, Jurkat [3]: 25.0 ± 2.6% | ability to induce apoptosis in Jurkat cells (in words) [3]: decreased activity; also recorded: lost some activity

receptor selectivity of apoptotic activity (in words) [1]: TRAIL-R1 selective
B2: TRAIL N199V: Asn199Val single mutant of His-TRAIL (protein)
chain: TSEETISTVQEKQQNISPLVRERGPQRVAAHITGTRGRSNTLSSPNSKNEKALGRKINSWESSRSGHSFLSNLHLRNGELVIHEKGFYYIYSQTYFRFQEEIKEVTKNDKQMVQYIYKYTSYPDPILLMKSARNSCWSKDAEYGLYSIYQGGIFELKENDRIFVSVTNEHLIDMDHEASFFGAFLVG

receptor selectivity of apoptotic activity (in words) [1]: TRAIL-R1 selective
B3: TRAIL R191L: Arg191Leu single mutant of His-TRAIL (protein)
chain: TSEETISTVQEKQQNISPLVRERGPQRVAAHITGTRGRSNTLSSPNSKNEKALGRKINSWESSRSGHSFLSNLHLRNGELVIHEKGFYYIYSQTYFLFQEEIKENTKNDKQMVQYIYKYTSYPDPILLMKSARNSCWSKDAEYGLYSIYQGGIFELKENDRIFVSVTNEHLIDMDHEASFFGAFLVG

B4: TRAIL.R1-1: His-TRAIL (95-281) with single substitution Tyr189Ala (protein)
chain: TSEETISTVQEKQQNISPLVRERGPQRVAAHITGTRGRSNTLSSPNSKNEKALGRKINSWESSRSGHSFLSNLHLRNGELVIHEKGFYYIYSQTAFRFQEEIKENTKNDKQMVQYIYKYTSYPDPILLMKSARNSCWSKDAEYGLYSIYQGGIFELKENDRIFVSVTNEHLIDMDHEASFFGAFLVG
% PS+ cells, Ramos [2]: 30.6 ± 2.9% | ability to induce apoptosis in Ramos cells (in words) [2]: decreased ability to induce apoptosis | % PS+ cells, Jurkat [3]: 24.9 ± 2.2% | ability to induce apoptosis in Jurkat cells (in words) [3]: decreased ability to induce apoptosis

B5: TRAIL.R1-2: His-TRAIL (95-281) with 213Trp and 215Asp (Y213W;S215D) (protein)
chain: TSEETISTVQEKQQNISPLVRERGPQRVAAHITGTRGRSNTLSSPNSKNEKALGRKINSWESSRSGHSFLSNLHLRNGELVIHEKGFYYIYSQTYFRFQEEIKENTKNDKQMVQYIYKWTDYPDPILLMKSARNSCWSKDAEYGLYSIYQGGIFELKENDRIFVSVTNEHLIDMDHEASFFGAFLVG
receptor selectivity of apoptotic activity (in words) [1]: neither specific for TRAIL-R1 nor R2; also recorded: did not show any differential effects | % PS+ cells, Ramos [2]: 42.2 ± 3.1% | ability to induce apoptosis in Ramos cells (in words) [2]: very similar activity to wt TRAIL | % PS+ cells, Jurkat [3]: 46.6 ± 3.1% | ability to induce apoptosis in Jurkat cells (in words) [3]: very similar activity to wt TRAIL

B6: TRAIL.R1-5a: His-TRAIL (95-281) with 189Ala, 199Val, 201Arg, 213Trp, 215Asp (protein)
chain: TSEETISTVQEKQQNISPLVRERGPQRVAAHITGTRGRSNTLSSPNSKNEKALGRKINSWESSRSGHSFLSNLHLRNGELVIHEKGFYYIYSQTAFRFQEEIKEVTRNDKQMVQYIYKWTDYPDPILLMKSARNSCWSKDAEYGLYSIYQGGIFELKENDRIFVSVTNEHLIDMDHEASFFGAFLVG
% PS+ cells, Ramos [2]: 18.9 ± 0.7% | ability to induce apoptosis in Ramos cells (in words) [2]: markedly diminished activity | % PS+ cells, Jurkat [3]: 6.6 ± 0.4% | ability to induce apoptosis in Jurkat cells (in words) [3]: complete inactivity
